The results in this text go back to publication PMC9723502.

The series concerns the target CsrA-His10 (Escherichia coli K-12, UniProt P69913 1-61). As to the kind of experiment: EMSA. A general note: Mobility shift assays separate free from complexed probe on a gel.

For GGGUUCAGGGACGUCAUUACGGGCAGGAUUGCCCACCC (structured_RNA) [FimR2-G23A-G24U], the binding result is reported as “no binding”.
To GGGUUCAAAGACGUCAUUACGGGCAGGGAUGCCCACCC (structured_RNA) [FimR2 ssRegion mutant] belongs “binds”.
